Source: patent US20110294738A1, “PTHR1 RECEPTOR COMPOUNDS” (priority 2008, published 2011)
* marks the point of attachment. Palmitoyl = CCCCCCCCCCCCCCCC(=O)*

Experiments:
[1] = target: T1, PTHR1 (Rattus norvegicus, UniProt P25961)
T1 sequence (P25961 27-591): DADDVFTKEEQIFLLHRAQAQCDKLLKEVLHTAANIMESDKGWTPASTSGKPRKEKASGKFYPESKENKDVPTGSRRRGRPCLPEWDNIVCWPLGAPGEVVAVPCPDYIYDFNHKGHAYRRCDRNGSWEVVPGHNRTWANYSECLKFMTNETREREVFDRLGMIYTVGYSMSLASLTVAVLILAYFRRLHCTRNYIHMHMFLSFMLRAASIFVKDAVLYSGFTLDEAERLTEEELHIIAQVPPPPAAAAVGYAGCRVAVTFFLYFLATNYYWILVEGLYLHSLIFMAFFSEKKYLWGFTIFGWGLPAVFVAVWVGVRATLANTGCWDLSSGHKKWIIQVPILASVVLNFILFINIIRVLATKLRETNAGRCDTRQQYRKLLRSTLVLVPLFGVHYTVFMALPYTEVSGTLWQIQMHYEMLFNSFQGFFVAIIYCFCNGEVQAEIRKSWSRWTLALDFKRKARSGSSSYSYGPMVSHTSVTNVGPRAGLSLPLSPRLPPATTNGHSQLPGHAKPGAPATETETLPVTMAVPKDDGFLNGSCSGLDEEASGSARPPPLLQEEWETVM
Description: (§1) cAMP Screening Assay Using DiscoveRX XS+ Kit
(§2) UMR-106 cells were seeded in 96-well white plates at 10K cells/well in growth media. Twenty four hours after seeding, cell media was removed by gentle dumping and replaced with 30 μL of compounds diluted to 10 μM final concentration in assay buffer (Hank's balanced Salt Solution, 20 mM HEPES, pH 7.4, 0.1 μM IBMX). After 30 minute incubation at room temperature, 10 μL human PTH1-34 serial diluted in assay buffer was added. Cells were incubated at 37° C. for 15 minutes before 10 μL of water soluble analog of forskolin, NKH477 was added to final concentration of 10 μM followed by 60 minute incubation at room temperature. DiscoveRX cAMP XS+ kit reagents were then added following manufacture protocol. Briefly, 10 μL of antibody was added to each well followed by 40 μL of ED/Lysis buffer mix (1/5/19 for Galacon-star/Emerald/Lysis buffer and then 1:1 with ED). After 1 hour incubation, 40 μL of EA reagent was added followed by at least 1 hour incubation before the plates were read on TopCount reader. Data was analyzed using GraphPad Prism. PTH1-34 dose-response curves were fitted using non-linear curve fit (Y=Bottom+(Top−Bottom)/(1+10̂((Log EC50−X)*HillSlope))). PTH1-34 EC50 values calculated in the presence of compounds were compared to that in the presence of vehicle control. The ratio of the EC50 values were calculated and presented as fold shift (EC50 compound/EC50 vehicle). The effect of compounds on PTH1-34 stimulated maximal response was also assessed and was presented percent inhibition (1−(Emax compound/Emax vehicle)).

[2] = target: T1, PTHR1; test: cAMP screening assay using DiscoveRX XS+ kit (PTH1-34 dose-response in UMR-106 cells); settings: compound 10 μM, PTH1-34 stimulated maximal response, 1−(Emax compound/Emax vehicle)
Description: as §1, §2

| Inhibition of Maximal Response [2] [%] | Substance | Fold Shift of EC50 [1] |
| --- | --- | --- |
| −25.20 | TNAGRSDTRQQYRKLLK [Compound 84] | 9.1 |
| 25.30 | NGEVQAEIKKSWSRWT [Compound 101] | 1.2 |
| −25.00 | TNAGRSDTRQQYRKLA [Compound 88] | 2.8 |
| −25.40 | SWSRWTLALDFKRKAR [Compound 102] | 1 |
| −5.40 | RETNAGRSDTRQQY [Compound 62] | 1.1 |
| −39.00 | RSDTRQQYRKLLKS [Compound 66] | 16.4 |
| −30.40 | DTRQQYRKLLKSTL [Compound 56] | 1.9 |
| 37.20 | KKSWSRWTLALDFKRKAR [Compound 97] | 4.7 |
| −0.10 | TNAGRSDTRQQYRKLLKS [Compound 64] | 7 |
| 22.30 | SGRVLATKLRET [Compound 72] | 0.7 |
| 7.00 | EIKKSWSRWTLALDFKRKAR [Compound 96] | 1.1 |
| 6.40 | KLRETNAGRSDTRQQY [Compound 53] | 2.1 |
| 17.50 | NIVRVLATKLRETNAGR [Compound 54] | 0.7 |
| 8.00 | TNAGRSDTRQQYRKLLA [Compound 87] | 4.1 |

Continued, substance first:

| Substance | Inhibition of Maximal Response [2] [%] | Fold Shift of EC50 [1] |
| --- | --- | --- |
| Pal-GSEKKYLWGFTVF-amide (Palmitoyl-GSEKKYLWGFTVF-NH2; SMILES CCCCCCCCCCCCCCCC(=O)NCC(=O)N[C@@H](CO)C(=O)N[C@@H](CCC(=O)O)C(=O)N[C@@H](CCCCN)C(=O)N[C@@H](CCCCN)C(=O)N[C@@H](Cc1ccc(O)cc1)C(=O)N[C@@H](CC(C)C)C(=O)N[C@@H](Cc1c[nH]c2ccccc12)C(=O)NCC(=O)N[C@@H](Cc1ccccc1)C(=O)N[C@H](C(=O)N[C@H](C(=O)N[C@@H](Cc1ccccc1)C(N)=O)C(C)C)[C@@H](C)O) [Compound 41] | 17.70 | 0.9 |
| TNAGRSDTRQQYRKLLKSTL [Compound 52] | 1.70 | 11.1 |
| GGYFRRLHSTRNYIH [Compound 13] | 29.20 | 0.7 |
| HSLIFMAFFSEKKYLWGFT [Compound 36] | 5.90 | 1.2 |
| VLATKLRETNAGRSDTRQQ [Compound 46] | 20.30 | 0.9 |
| LHSLIFMAFFSEKKYLWGFT [Compound 37] | 35.60 | 1.1 |
| LAYFRRLHSTRNYIHMH [Compound 10] | 24.10 | 1.1 |
| GSEKKYLWG [Compound 43] | 5.70 | 1.4 |
| LYLHSLIFMAFFSEKKYLWG [Compound 38] | 21.90 | 1.1 |
| LAYFRRLHSTRN [Compound 14] | 15.20 | 0.7 |
| YLHSLIFMAFFSEKKYLWGFT [Compound 35] | 24.50 | 1.1 |
| YFRRLHSTRNYIH [Compound 6] | 10.80 | 1 |
| RETNAGRSDTRQQRKLLKS [Compound 48] | −3.30 | 7 |
| VRVLATKLRETNAGRSDTR [Compound 45] | 9.10 | 1.4 |
